Assay results reported in US20140363428A1 (Chugai, published 2014).
Substitutions are numbered along the chain they refer to.

B1: IgG1-F1138 (antibody)
heavy: QVQLQESGPGLVKPSETLSLTCAVSGHSISHDHAWSWVRQPPGEGLEWIGFISYSGITNYNPSLQGRVTISRDNSKNTLYLQMNSLRAEDTAVYYCARSLARTTAMDYWGEGTLVTVSSASTKGPSVFPLAPSSKSTSGGTAALGCLVKDYFPEPVTVSWNSGALTSGVHTFPAVLQSSGLYSLSSVVTVPSSSLGTQTYICNVNHKPSNTKVDKKVEPKSCDKTHTCPPCPAPELRGGPKVFLFPPKPKDTLYISRTPEVTCVVVDVSHEDPEVKFNWYVDGVEVHNAKTKPREEQYNSTYRVVSVLTVLHQDWLNGKEYKCKVSNKALPAPIEKTISKAKGQPREPQVYTLPPSRDELTKNQVSLTCLVKGFYPSDIAVEWESNGQPENNYKTTPPVLDSDGSFFLYSKLTVDKSRWQQGNVFSCSVMHEALHYHVTRKELSLSP
light: not shown
B2: F1614 (antibody)
chain 1: B1 heavy with S256T, R257L, T258E, E260D, H435D, E442D
chain 2: DIQMTQSPSSLSASVGDSVTITCQASTDISSHLNWYQQKPGKAPELLIYYGSHLLSGVPSRFSGSGSGTDFTFTISSLEAEDAATYYCGQGNRLPYTFGQGTKVEIERTVAAPSVFIFPPSDEQLKSGTASVVCLLNNFYPREAKVQWKVDNALQSGNSQESVTEQDSKDSTYSLSSTLTLSKADYEKHKVYACEVTHQGLSSPVTKSFNRGEC
B3: F1611 (antibody)
chain 1: B1 heavy with S256T, R257L, T258E, E260I, H435D, R440K
chain 2: B2 chain 2
B4: F1592 (antibody)
chain 1: B1 heavy with S256T, R257L, T258E, E260I, H435D
chain 2: B2 chain 2
B5: F1586 (antibody)
chain 1: B1 heavy with S256T, R257L, T258E, E260D, H435D
chain 2: B2 chain 2
B6: F1599 (antibody)
chain 1: B1 heavy with S256T, T258E, H435D, R440K, E442D
chain 2: B2 chain 2
B7: F1578 (antibody)
chain 1: B1 heavy with S256T, T258E, H435R
chain 2: B2 chain 2
B8: F1610 (antibody)
chain 1: B1 heavy with S256T, R257L, T258E, E260D, H435D, R440K
chain 2: B2 chain 2
B9: F1605 (antibody)
chain 1: B1 heavy with S256T, R257L, T258E, H435D, E442D
chain 2: B2 chain 2
B10: F1567 (antibody)
chain 1: B1 heavy with S256T, T258E, H435A
chain 2: B2 chain 2
B11: F1572 (antibody)
chain 1: B1 heavy with S256T, T258E, H435K
chain 2: B2 chain 2
B12: F1576 (antibody)
chain 1: B1 heavy with S256T, T258E, H435P
chain 2: B2 chain 2
B13: F1613 (antibody)
chain 1: B1 heavy with S256T, R257L, T258E, E260I, H435D, R440K, E442D
chain 2: B2 chain 2
B14: F1615 (antibody)
chain 1: B1 heavy with S256T, R257L, T258E, E260I, H435D, E442D
chain 2: B2 chain 2
B15: F1612 (antibody)
chain 1: B1 heavy with S256T, R257L, T258E, E260D, H435D, R440K, E442D
chain 2: B2 chain 2
B16: F1655 (antibody)
heavy: B1 heavy with S256T, T258E, H435S, R440K, E442D
light: B2 chain 2
B17: IgG1-F1269 (antibody)
heavy: B1 heavy with H435D, R440K, E442D
light: not shown
B18: F1653 (antibody)
heavy: B1 heavy with S256T, T258E, H435S, R440K
light: B2 chain 2
B19: IgG1-F1305 (antibody)
heavy: B1 heavy with H435D, E442D
light: not shown
B20: F1566 (antibody)
heavy: B1 heavy with S256T, T258E, N288E, H435D, R440K
light: B2 chain 2
B21: IgG1-F1351 (antibody)
heavy: B1 heavy with V438F
light: not shown
B22: F1603 (antibody)
heavy: B1 heavy with S256T, R257L, T258E, H435D, R440K
light: B2 chain 2
B23: F1654 (antibody)
heavy: B1 heavy with S256T, T258E, H435S, E442D
light: B2 chain 2
B24: IgG1-F1349 (antibody)
heavy: B1 heavy with V438T
light: not shown
B25: IgG1-F1261 (antibody)
heavy: B1 heavy with E442D
light: not shown
B26: F1604 (antibody)
heavy: B1 heavy with S256T, R257L, T258E, H435D, R440K, E442D
light: B2 chain 2
B27: IgG1-F1263 (antibody)
heavy: B1 heavy with R440K, E442D
light: not shown
B28: IgG1-F1344 (antibody)
heavy: B1 heavy with V438T, R440K
light: not shown
B29: IgG1-F1350 (antibody)
heavy: B1 heavy with V438F, R440K
light: not shown
B30: IgG1-F1329 (antibody)
heavy: B1 heavy with G238R, S256T
light: not shown
B31: IgG1-F1262 (antibody)
heavy: B1 heavy with R440K
light: not shown
B32: IgG1-F1306 (antibody)
heavy: B1 heavy with H435D, R440K
light: not shown
B33: F1601 (antibody)
heavy: B1 heavy with S256T, T258E, N288E, H435D, R440K, E442D
light: B2 chain 2
B34: IgG1-F1331 (antibody)
heavy: B1 heavy with G238R, S256T, T258E
light: not shown
B35: IgG1-F1151 (antibody)
heavy: B1 heavy with S426N, V438Y, R440Q, E442S
light: not shown
notes: VH3-IgG1 with Fc substitutions (EU numbering) + L(WT)-CK
B36: IgG1-F1142 (antibody)
heavy: B1 heavy with V424E, S426R
light: not shown
notes: as for B35
B37: IgG1-F1147 (antibody)
heavy: B1 heavy with R237L, K241S, T309Q, Q313A, V438Y
light: not shown
notes: as for B35
B38: IgG1-F1140 (antibody)
heavy: B1 heavy with R237L, K241S, V424E, S426R
light: not shown
notes: as for B35
B39: IgG1-F1153 (antibody)
heavy: B1 heavy with T252V, T309Q, Q313A, S426N, R440Q, E442S
light: not shown
notes: as for B35
B40: IgG1-F1158 (antibody)
heavy: B1 heavy with V438Y
light: not shown
notes: as for B35
B41: IgG1-F1144 (antibody)
heavy: B1 heavy with T252V, T309Q, V310P, Q313A
light: not shown
notes: as for B35
B42: IgG1-F1148 (antibody)
heavy: B1 heavy with T309Q, Q313A, V438Y
light: not shown
notes: as for B35
B43: IgG1-F1145 (antibody)
heavy: B1 heavy with R237L, K241S, T252V, T309Q, Q313A
light: not shown
notes: as for B35
B44: IgG1-F1154 (antibody)
heavy: B1 heavy with T252V, T309Q, V310P, Q313A, S426N, R440Q, E442S
light: not shown
notes: as for B35
B45: IgG1-F1139 (antibody)
heavy: B1 heavy with S426N, R440Q, E442S
light: not shown
notes: as for B35
B46: IgG1-F1141 (antibody)
heavy: B1 heavy with R237L, K241S, V424S, S426R
light: not shown
notes: as for B35
B47: IgG1-F1143 (antibody)
heavy: B1 heavy with V424S, S426R
light: not shown
notes: as for B35
B48: IgG1-F1146 (antibody)
heavy: B1 heavy with T252V, T309Q, Q313A
light: not shown
notes: as for B35
B49: IgG1-F1157 (antibody)
heavy: B1 heavy with R237L, K241S, V438Y
light: not shown
notes: as for B35
B50: IgG1-F1152 (antibody)
heavy: B1 heavy with T309Q, Q313A, S426N, V438Y, R440Q, E442S
light: not shown
notes: as for B35

Target: T1, soluble human FcRn (human, UniProt P55899 24-297; P61769 21-119)
T1 construct: Heterodimer of alpha chain and beta2-microglobulin; also called hFcRn
T1 sequence (P55899 24-297 limits assumed, chain 1 of 2): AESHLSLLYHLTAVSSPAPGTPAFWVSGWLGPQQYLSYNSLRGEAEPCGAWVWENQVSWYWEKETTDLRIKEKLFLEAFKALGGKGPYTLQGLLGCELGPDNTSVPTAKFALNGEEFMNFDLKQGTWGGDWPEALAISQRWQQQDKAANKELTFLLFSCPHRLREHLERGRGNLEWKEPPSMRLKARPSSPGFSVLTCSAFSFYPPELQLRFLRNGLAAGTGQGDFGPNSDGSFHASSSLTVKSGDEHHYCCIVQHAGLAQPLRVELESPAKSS
T1 sequence (P61769 21-119 limits assumed, chain 2 of 2): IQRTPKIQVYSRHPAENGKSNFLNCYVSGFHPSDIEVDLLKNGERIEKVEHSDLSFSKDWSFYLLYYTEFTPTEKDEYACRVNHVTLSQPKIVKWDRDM
Assay: SPR (Biacore), pH 7.0

Binder | Kd [nM]
B1 | 170
B2 | 51
B3 | 52
B4 | 55
B5 | 55
B6 | 74
B7 | 46
B8 | 48
B9 | 61
B10 | 48
B11 | 41
B12 | 43
B13 | 52
B14 | 60
B15 | 49
B16 | 44
B17 | 170

Binder | Kd [nM]
B18 | 45
B19 | 200
B20 | 40
B21 | 160
B22 | 59
B23 | 45
B24 | 340
B25 | 140
B26 | 60
B27 | 120
B28 | 400
B29 | 120
B30 | 130
B31 | 130
B32 | 190
B33 | 35
B34 | 77

Target: T2, soluble human FcRn (heterodimer of FcRn alpha chain and beta2-microglobulin) (human, UniProt P55899 24-297; P61769 21-119)
T2 construct: Expressed in HEK293H and purified on IgG Sepharose; also called hFcRn
T2 sequence (P55899 24-297 limits assumed, chain 1 of 2): as the sequence (P55899 24-297 limits assumed, chain 1 of 2) above
T2 sequence (P61769 21-119 limits assumed, chain 2 of 2): as the sequence (P61769 21-119 limits assumed, chain 2 of 2) above
Assay: SPR Biacore T100, antibody captured via protein L, hFcRn analyte, pH 7.0, 25 C;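 also: KD derived from kinetic ka and kd fits of sensorgrams, CM4 sensor chip, sodium phosphate NaCl Tween20 running buffer, buffer-only injection used as reference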
Experimental: An appropriate amount of protein L (ACTIGEN) was immobilized onto Sensor chip CM4 (GE Healthcare) by the amino coupling method, and the chip was allowed to capture an antibody of interest. Then, diluted FcRn solutions and running buffer (as a reference solution) were injected to allow human FcRn to interact with the antibody captured on the sensor chip. The running buffer used comprised 50 mmol/l sodium phosphate, 150 mmol/l NaCl, and 0.05% (w/v) Tween20 (pH 7.0). FcRn was diluted using each buffer. The chip was regenerated using 10 mmol/l glycine-HCl (pH 1.5). Assays were carried out exclusively at 25 degrees C. The association rate constant ka (1/Ms) and dissociation rate constant kd (1/s), both of which are kinetic parameters, were calculated based on the sensorgrams obtained in the assays, and KD (M) of each antibody for human FcRn was determined from these values. Each parameter was calculated using Biacore T100 Evaluation Software (GE Healthcare).

Binder | Kd [nM]
B35 | 250
B36 | 190
B37 | 72
B38 | 160
B39 | 48
B40 | 240
B41 | 14
B42 | 76
B43 | 52
B44 | 13
B45 | 150
B46 | 180
B47 | 200
B48 | 62
B49 | 210
B50 | 74
